B1: Polycomb protein Scm (Drosophila melanogaster (Fruit fly)), Q9VHA0 (parent)
chain: MSGGRDSSTSSGSNSAAPGASTNATSSASASASSTSTSASPGSTTSPASTQRQRGRPAKRATCTWCGEGKLPLQYVLPTQTGKKEFCSETCIAEFRKAYSKGACTQCDNVIRDGAPNKEFCSIMCMNKHQKKNCSTRHSGGSASGKGLAESERKLLASGAPAPTGPFQYESFHVFDWDAYLEETGSEAAPAKCFKQAQNPPNNDFKIGMKLEALDPRNVTSTCIATVVGVLGSRLRLRLDGSDSQNDFWRLVDSTEIHAIGHCEKNGGMLQPPLGFRMNASSWPGYLCKILNNAMVAPEEIFQPEPPEPEENLFKVGQKLEAVDKKNPQLICCATVDAIKDDQIHVTFDGWRGAFDYWCNYRSRDIFPAGWCARSCHPMQPPGHKSRMDSSSSKQRCPRPRYTVVAESEAMVPASPATAHFHPNCKGGPFINNSKLPCMVTGPTYQTLAKLCLQEVLAASTDTQQLSKLLFALEGDVHIVTAAGKNFTVKIPSPMRMKDDESLAQFIETLCTTCRACANLISLVHETEECKKCANSRKRQLTQSATPPSSPVLADKRNRQSNSATTSPSEKIIKQELAVKSPVESKSKTSTNNGKEPASQQNSNHSLNNNNNSASKSSNKVVIKSEPNGANAQTSSTTQALRKVRFQHHANTNTNSSATNGNQDTSQTTHVSTSHCSSSSTSSSTSLAGGSANTSTIGKYLAPLVAEVHPEQANVKPSNSYYKSPTTLSSSASLPTSVSTPFTGCQSASSTALAAGGVTAAKAATAPAGAAATAGASPSYTAITSPVSTPTSALANSHLRSQPIDWTIEEVIQYIESNDNSLAVHGDLFRKHEIDGKALLLLNSEMMMKYMGLKLGPALKICNLVNKVNGRRNNLAL
B2: Polyhomeotic-proximal chromatin protein (Drosophila melanogaster (Fruit fly)), P39769 (parent)
chain: MDRRALKFMQKRADTESDTTTPVSTTASQGISASAILAGGTLPLKDNSNIREKPLHHNYNHNNNNSSQHSHSHQQQQQQQVGGKQLERPLKCLETLAQKAGITFDEKYDVASPPHPGIAQQQATSGTGPATGSGSVTPTSHRHGTPPTGRRQTHTPSTPNRPSAPSTPNTNCNSIARHTSLTLEKAQNPGQQVAATTTVPLQISPEQLQQFYASNPYAIQVKQEFPTHTTSGSGTELKHATNIMEVQQQLQLQQQLSEANGGGAASAGAGGAASPANSQQSQQQQHSTAISTMSPMQLAAATGGVGGDWTQGRTVQLMQPSTSFLYPQMIVSGNLLHPGGLGQQPIQVITAGKPFQGNGPQMLTTTTQNAKQMIGGQAGFAGGNYATCIPTNHNQSPQTVLFSPMNVISPQQQQNLLQSMAAAAQQQQLTQQQQQFNQQQQQQLTQQQQQLTAALAKVGVDAQGKLAQKVVQKVTTTSSAVQAATGPGSTGSTQTQQVQQVQQQQQQTTQTTQQCVQVSQSTLPVGVGGQSVQTAQLLNAGQAQQMQIPWFLQNAAGLQPFGPNQIILRNQPDGTQGMFIQQQPATQTLQTQQNQIIQCNVTQTPTKARTQLDALAPKQQQQQQQVGTTNQTQQQQLAVATAQLQQQQQQLTAAALQRPGAPVMPHNGTQVRPASSVSTQTAQNQSLLKAKMRNKQQPVRPALATLKTEIGQVAGQNKVVGHLTTVQQQQQATNLQQVVNAAGNKMVVMSTTGTPITLQNGQTLHAATAAGVDKQQQQLQLFQKQQILQQQQMLQQQIAAIQMQQQQAAVQAQQQQQQQVSQQQQVNAQQQQAVAQQQQAVAQAQQQQREQQQQVAQAQAQHQQALANATQQILQVAPNQFITSHQQQQQQQLHNQLIQQQLQQQAQAQVQAQVQAQAQQQQQQREQQQNIIQQIVVQQSGATSQQTSQQQQHHQSGQLQLSSVPFSVSSSTTPAGIATSSALQAALSASGAIFQTAKPGTCSSSSPTSSVVTITNQSSTPLVTSSTVASIQQAQTQSAQVHQHQQLISATIAGGTQQQPQGPPSLTPTTNPILAMTSMMNATVGHLSTAPPVTVSVTSTAVTSSPGQLVLLSTASSGGGGSIPATPTKETPSKGPTATLVPIGSPKTPVSGKDTCTTPKSSTPATVSASVEASSSTGEALSNGDASDRSSTPSKGATTPTSKQSNAAVQPPSSTTPNSVSGKEEPKLATCGSLTSATSTSTTTTITNGIGVARTTASTAVSTASTTTTSSGTFITSCTSTTTTTTSSISNGSKDLPKAMIKPNVLTHVIDGFIIQEANEPFPVTRQRYADKDVSDEPPKKKATMQEDIKLSGIASAPGSDMVACEQCGKMEHKAKLKRKRYCSPGCSRQAKNGIGGVGSGETNGLGTGGIVGVDAMALVDRLDEAMAEEKMQTEATPKLSESFPILGASTEVPPMSLPVQAAISAPSPLAMPLGSPLSVALPTLAPLSVVTSGAAPKSSEVNGTDRPPISSWSVDDVSNFIRELPGCQDYVDDFIQQEIDGQALLLLKEKHLVNAMGMKLGPALKIVAKVESIKEVPPPGEAKDPGAQ

Variants of: B1
Conditions: with php_drome ph-p, P39769

| effect of a mutation on the interaction | Variant |
| --- | --- |
| decreasing interaction | G836S |

Variants of: B2
Conditions: with scm_drome Scm, Q9VHA0

| effect of a mutation on the interaction | Variant |
| --- | --- |
| decreasing interaction | G1562A |
| decreasing interaction | W1513A |

Source: IntAct's records for PubMed 9343432
